Results as given in patent US20250339569A1 (3B PHARMACEUTICALS, published 2025).
Values belong to the binder of their own block, whether it stands above or below them. Starred links: 1 amine or outer side, 2 acyl side, 3 side chain; linkers in the order of their positions; H or OH if unused. Positions of bridges follow the written chain, without caps; N, C: chain ends. Non-standard residues stand in square brackets, D forms with d. Primed or numbered codes have the meaning given here. *: point of attachment. Aph(4SaPy2Ac) = 4-amino-L-phenylalanine, ring amine acylated by (4-sulfamoyl-pyrazol-1-yl)-acetic acid, NS(=O)(=O)c1cnn(CC(=O)Nc2ccc(C[C@H](N[*:1])C(=O)[*:2])cc2)c1; Aph(SaPr)″ = 4-amino-L-phenylalanine, ring amine acylated with 3-sulfamoylpropanoic acid, NS(=O)(=O)CCC(=O)Nc1ccc(C[C@H](N[*:1])C(=O)[*:2])cc1; Ttds(4) = 1,13-diamino-4,7,10-trioxatridecan-succinamic acid spacer, O=C(CCC(=O)[*:2])NCCCOCCOCCOCCCN[*:1]; PPAc(3) = 4-carboxymethyl piperazine linker between DOTA and Gln1, O=C(CN1CCN([*:1])CC1)[*:2]; Phe(3-NHCO(CH2)3SO2NH2) = N[C@@H](Cc1cccc(NC(=O)CCCS(N)(=O)=O)c1)C(=O)O; APAc″ = 2-(4-(amino)piperidin-1-yl)acetic acid, NC1CCN(CC(=O)*)CC1; DOTA = O=C(O)CN1CCN(CC(=O)O)CCN(CC(=O)*)CCN(CC(=O)O)CC1; Biotin = O=C1N[C@H]2[C@H](CS[C@H]2CCCCC(=O)*)N1; PPAc = 4-carboxymethyl piperazine linker; mXylylene = c1cc(C[*:1])cc(C[*:2])c1; Dap = NC[C@H](N)C(=O)O

Tests used:
[1] = target: T1, human carbonic anhydrase IX (CAIX) (human, UniProt Q16790 38-459); assay: FACS competition, HT-29 cells, tracer 3BP-4149; pIC50 category C: 6.1-7.0
Experimental: (§1) CAIX-expressing human HT-29 colorectal cancer cells (DSMZ, RRID: CVCL_0320) were cultured in McCoys's 5A modified medium (Biochrom, #F1015) including 10% fetal calf serum (FCS), 2 mM L-glutamine, 100 U/ml penicillin and 100 μg/mL streptomycin. Cells were detached with Accutase (Biolegend, #423201) and washed in FACS buffer (PBS including 1% FCS). Cells were diluted in FACS buffer to a final concentration of 500.000 cells per ml. 200 μL of the cell suspension were transferred to a u-shaped non-binding 96-well plate (Greiner) and cells were washed in ice-cold FACS buffer.
(§2) When biotinylated compounds were used an additional incubation step with 1 μg/mL APC-Streptavidin (Miltenyi; #130-106-791) in 50 μL FACS buffer for 30 minutes on ice was performed.
(§3) Cells were washed twice with ice-cold FACS buffer and analyzed in an Attune NxT flow cytometer (Thermo Fisher). Median fluorescence intensities (MFI) of the APC/Cy5-channel were calculated by Attune NxT software.

[2] = target: T2, canine carbonic anhydrase 9 (CAIX) (dog); assay: radioligand saturation binding on CHO cells with dog CAIX, 8 h at 37 C
T2 construct: also called dog CAIX; dgCAIX
T2 sequence (chain, as listed by the source limits assumed): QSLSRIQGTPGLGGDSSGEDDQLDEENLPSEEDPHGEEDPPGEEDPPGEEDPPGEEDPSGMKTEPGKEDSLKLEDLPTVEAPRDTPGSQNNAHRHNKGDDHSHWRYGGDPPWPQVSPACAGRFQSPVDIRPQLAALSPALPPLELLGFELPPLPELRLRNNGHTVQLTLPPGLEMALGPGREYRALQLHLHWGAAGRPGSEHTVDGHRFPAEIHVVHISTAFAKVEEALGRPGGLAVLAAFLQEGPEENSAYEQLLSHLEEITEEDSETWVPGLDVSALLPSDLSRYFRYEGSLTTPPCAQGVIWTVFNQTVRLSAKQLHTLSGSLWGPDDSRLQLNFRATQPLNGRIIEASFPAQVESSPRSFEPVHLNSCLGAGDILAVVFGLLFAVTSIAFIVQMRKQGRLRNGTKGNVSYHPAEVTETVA
Experimental: (§5) The radioligand saturation binding on CHO-huCAIX and dgCAIX was determined as follows. […] To determine total binding, 700 μL of binding medium and 100 μL of the radioligand dilutions were added to the wells in triplicates. […] The plates were incubated for 8 h at 37° C. under standard cell culture conditions (5% CO2). At the end of the incubation time the plates were placed on ice while aspirating the radioligand solutions. Aliquots of the 20 nM supernatants were transferred to HPLC vials for analysis of radioligand stability over the incubation time. Subsequently, the cells were washed with ice-cold PBS (0.5 mL, 1 mL, 1 mL). 300 μL of RIPA buffer containing PIC was added to each well and the plates were placed on a shaker for 10 min at ambient temperature. 200 μL of the cell lysate of each well was transferred to gamma-counting tubes. Their associated radioactivity was counted using a gamma counter and normalized to the measured protein concentration of each well (see chapter 6.3.7 BCA protein assay). An aliquot of each radioligand dilution was included in the gamma counter measurements to allow for determination of the actual radioligand concentrations in the dilution series.

[3] = target: human carbonic anhydrase 9 (CAIX) (human, UniProt Q16790 38-459); assay: FACS binding assay on CAIX-expressing HT-29 cells, biotinylated compound detected with APC-streptavidin; pEC50 category (B = pEC50 between 7.1 and 8.0)
Experimental: as §1, §2, §3

[4] = target: Human carbonic anhydrase IX Fc-fusion protein (CAIX, Sino Biological, 10107-H02H) (human, UniProt Q16790 38-414); assay: SPR (Biacore T200), CAIX-Fc captured by anti-human Fc antibody, peptide as analyte, single cycle kinetics, 25 C, 1:1 Langmuir fit
Experimental: Surface Plasmon Resonance (SPR) studies were performed on a Biacore™ T200 using a ligand capture approach. Basically, anti-human Fc antibodies were immobilized on the surface of a sensor chip and CAIX was captured on the functionalized surface via its Fc Tag.

[5] = target: T3, Fc-fusion protein of human carbonic anhydrase IX (human, UniProt Q16790 38-414); assay: SPR, captured hCAIX-Fc; t1/2 category A: >15.0 min
[6] = target: T4, human carbonic anhydrase XII (CAXII), biotinylated (human, UniProt O43570 25-301, biotinylated); assay: SPR, biotinylated CAXII captured (Biotin CAPture)
T4 construct: Bought (SinoBiological Cat #10617-H08H); also called hCAXII-bio
T4 sequence (O43570 25-301 limits assumed): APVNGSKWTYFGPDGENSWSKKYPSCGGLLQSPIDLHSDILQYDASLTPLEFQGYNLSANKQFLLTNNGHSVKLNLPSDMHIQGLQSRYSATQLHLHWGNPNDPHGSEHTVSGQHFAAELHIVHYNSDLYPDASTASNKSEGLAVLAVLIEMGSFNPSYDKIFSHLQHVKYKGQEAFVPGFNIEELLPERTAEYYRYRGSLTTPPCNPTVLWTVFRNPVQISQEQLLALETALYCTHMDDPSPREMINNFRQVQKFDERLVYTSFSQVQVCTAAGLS
Excerpt: (§4) For each test compound, SPR raw data in the form of resonance units (RU) were plotted as sensorgrams using the Biacore™ T200 control software. The signal from the blank sensorgram was subtracted from that of the test compound sensorgram (blank corrected). The blank corrected sensorgram was corrected for baseline drift by subtracting the sensorgram of a SCK run without the test compound (running buffer only). […] Raw data and fit results were imported as text files in IDBS. The pKD value (negative decadic logarithm of dissociation constant) was calculated in the IDBS excel template.

[7] = target: T3, Fc-fusion protein of human carbonic …; assay: SPR, captured hCAIX-Fc; pKD category A: >8.0
[8] = target: T5, human carbonic anhydrase XIV (CAXIV), biotinylated (human, UniProt Q9ULX7 16-290, biotinylated); assay: SPR, biotinylated CAXIV captured (Biotin CAPture)
T5 construct: Bought (SinoBiological Cat #10458-H08H); also called hCAXIV-bio
T5 sequence (Q9ULX7 16-290 limits assumed): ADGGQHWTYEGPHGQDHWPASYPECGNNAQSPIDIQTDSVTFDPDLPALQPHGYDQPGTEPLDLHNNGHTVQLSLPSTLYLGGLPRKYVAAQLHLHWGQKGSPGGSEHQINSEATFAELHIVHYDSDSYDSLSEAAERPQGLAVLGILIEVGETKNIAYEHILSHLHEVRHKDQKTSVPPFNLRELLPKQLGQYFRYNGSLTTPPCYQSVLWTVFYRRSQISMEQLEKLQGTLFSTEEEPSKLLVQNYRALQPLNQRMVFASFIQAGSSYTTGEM
Excerpt: as §4

[9] = target: T6, human carbonic anhydrase IV (CAIV), biotinylated (human, UniProt P22748 19-283, limits assumed, biotinylated); assay: SPR, biotinylated CAIV captured (Biotin CAPture)
T6 construct: Bought (SinoBiological, Cat # printed 10472-1H081H); also called hCAIV-bio
T6 sequence (P22748 19-283 limits assumed): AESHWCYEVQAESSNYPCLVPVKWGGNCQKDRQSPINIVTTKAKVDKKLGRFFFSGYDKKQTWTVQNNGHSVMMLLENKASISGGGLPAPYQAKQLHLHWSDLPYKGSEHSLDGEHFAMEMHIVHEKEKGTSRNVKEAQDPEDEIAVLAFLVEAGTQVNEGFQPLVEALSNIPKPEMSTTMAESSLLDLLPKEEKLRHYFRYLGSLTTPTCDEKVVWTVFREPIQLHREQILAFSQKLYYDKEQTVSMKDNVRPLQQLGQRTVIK
Excerpt: as §4

[10] = target: T3, Fc-fusion protein of human carbonic …; assay: SPR, CAIX; pKD category A: >8.0
Experimental: Stock solutions of test compounds were prepared by dissolving each compound in DMSO. DMSO stock solution were diluted 1:1000 in Running Buffer without DMSO. […] SPR binding analyses were performed in Single Cycle Kinetic (SCK) mode at 25° C.
as §4

[11] = target: T1, human carbonic anhydrase IX (CAIX); assay: FACS competition, HT-29 cells, tracer 3BP-2776; pIC50 category A: >8.0
Experimental: as §1, §2, §3

[12] = target: T7, canine carbonic anhydrase 9 (CAIX) (dog); assay: radioligand saturation binding on CHO-dgCAIX cells, 8 h at 37 °C, experiment ii
T7 construct: Expressed on transfected CHO cells (CHO-dogCA9); also called dgCAIX; dog CAIX
T7 sequence (chain, as listed by the source limits assumed): as the sequence (chain, as listed by the source limits assumed) above
Experimental: as §5

pIC50 [1]: 6.1 to 7 pic50
B1: 3BP-4482 (peptide)
peptide: {DOTA-PPAc}-QCE[dP]D[Aph(4SaPy2Ac)]LTWSC-NH2
modifications: linker 2-11 via mXylylene

pKd [2]: ≥ 9
B2: [111In]In-DPI-4452: 111In-DOTA-PPAc-Q-[C(3MeBn)-EPD-Af3(Cpsu)-LTWSC]-NH2 (peptide)
peptide: {DOTA-PPAc}-QCE[dP]D[Phe(3-NHCO(CH2)3SO2NH2)]LTWSC-NH2
modifications: linker 2-11 via mXylylene; also: 111In complexed in DOTA
notes: also called 111In-3BP-4452; In-111-labeled DPI-4452

pEC50 [3]: 7.1 to 8 pec50
B3: 3BP-2775: H-Met-Gln-[Cys(3MeBn)-Glu-Ile-Trp-Val-Asp-Gly-Trp-Val-Thr-Cys]-Ttds-Lys(Bio)-NH2 (peptide)
peptide: H-MQCEIWVDGWVTC[Ttds(4)]K(Biotin)-NH2
modifications: linker 3-13 via mXylylene
SMILES: CC[C@H](C)[C@@H]1NC(=O)[C@H](CCC(=O)O)NC(=O)[C@@H](NC(=O)[C@H](CCC(N)=O)NC(=O)[C@@H](N)CCSC)CSCc2cccc(c2)CSC[C@@H](C(=O)NCCCOCCOCCOCCCNC(=O)CCC(=O)N[C@@H](CCCCNC(=O)CCCC[C@@H]2SC[C@@H]3NC(=O)N[C@@H]32)C(N)=O)NC(=O)[C@H]([C@@H](C)O)NC(=O)[C@H](C(C)C)NC(=O)[C@H](Cc2c[nH]c3ccccc23)NC(=O)CNC(=O)[C@H](CC(=O)O)NC(=O)[C@H](C(C)C)NC(=O)[C@H](Cc2c[nH]c3ccccc23)NC1=O
notes: Cyclic peptide, biotinylated

t1/2 (dissociation half-life) [4]: 1.87 h
B4: natGa-DPI-4452 (GaDOTA-PPAc-Gln-[Cys(3MeBn)-Glu-pro-Asp-Af3(Cpsu)-Leu-Thr-Trp-Ser-Cys]-NH2) (peptide)
peptide: {DOTA-PPAc(3)}-QCE[dP]D[Phe(3-NHCO(CH2)3SO2NH2)]LTWSC-NH2
modifications: linker 2-11 via mXylylene; also: natGa chelated by N-terminal DOTA
notes: Gallium complex of DPI-4452; also called 3BP-4529

t1/2 (dissociation half-life) [4]: 2.05 h
B5: natLu-DPI-4452 (LuDOTA-PPAc-Gln-[Cys(3MeBn)-Glu-pro-Asp-Af3(Cpsu)-Leu-Thr-Trp-Ser-Cys]-NH2) (peptide)
peptide: {DOTA-PPAc(3)}-QCE[dP]D[Phe(3-NHCO(CH2)3SO2NH2)]LTWSC-NH2
modifications: linker 2-11 via mXylylene; also: natLu chelated by N-terminal DOTA
notes: Lutetium complex of DPI-4452; also called 3BP-4555

t1/2 (half-life of the complex, SPR) [5]: > 0.25 h
pKD [6]: < 6 pkd
pKD [7]: > 8 pkd
pKD [8]: < 6 pkd
pKD [9]: < 6 pkd
pKD [10]: > 8 pkd
B6: 3BP-4174 (peptide)
peptide: {DOTA-APAc″}-VDCE[dP]DWLTW[Dap]C-NH2
modifications: lactam 2-11; linker 3-12 via mXylylene

pKd [2]: ≥ 9
B7: [111In]In-DPI-4501: 111In-DOTA-Q-[C(3MeBn)-EPD-Aph(SaPr)-LTWSC]-NH2 (peptide)
peptide: {DOTA}-QCE[dP]D[Aph(SaPr)″]LTWSC-NH2
modifications: linker 2-11 via mXylylene; also: 111In complexed in DOTA
notes: also called 111In-3BP-4501; In-111-labeled DPI-4501

t1/2 (half-life of the complex, SPR) [5]: > 0.25 h
pIC50 [11]: > 8 pic50
pKD [6]: < 6 pkd
pKD [7]: > 8 pkd
pKD [8]: < 6 pkd
pKD [9]: < 6 pkd
pKD [10]: > 8 pkd
B8: 3BP-4503 (peptide)
peptide: {DOTA}-ECE[dP]D[Phe(3-NHCO(CH2)3SO2NH2)]LTW[Dap]C-NH2
modifications: lactam 1-10; linker 2-11 via mXylylene
notes: also called DPI-4503

pKd [12]: 9.5 -log10(M)
B9: [^111In]In-DPI-4452 (peptide)
peptide: {DOTA-PPAc}-QCE[dP]D[Phe(3-NHCO(CH2)3SO2NH2)]LTWSC-NH2
modifications: linker 2-11 via mXylylene; also: 111In complexed in DOTA
notes: Cyclic peptide with chelator DOTA complexing In-111; X stands for the non-natural residue Af3(Cpsu); also called ^111In-DOTA-PPAc-Q-[C(3MeBn)-EPD-Af3(Cpsu)-LTWSC]-NH2; ^111In-3BP-4452
